Target: the molecule itself
Assay: SEC; purified Kir4.1 proteins on a Superose 6 column in glyco-diosgenin-containing buffer; pH 8.0 and pH 6.0 for the WT without tags; tetramer peak

| Protein | stoichiometry N |
| --- | --- |
| N-terminal FLAG-GFP-tagged full-length Kir4.1 (natural protein, UniProt P78508 1-379, looked up, Kir4.1 (KCNJ10), full length; also called F-GFP-Kir4.1; Kir4.1-WT; source: in detergent-solubilized membrane fraction, and purified; not shown: FLAG, N-terminal, kept; GFP, N-terminal, kept) MTSVAKVYYSQTTQTESRPLMGPGIRRRRVLTKDGRSNVRMEHIADKRFLYLKDLWTTFIDMQWRYKLLLFSATFAGTWFLFGVVWYLVAVAHGDLLELDPPANHTPCVVQVHTLTGAFLFSLESQTTIGYGFRYISEECPLAIVLLIAQLVLTTILEIFITGTFLAKIARPKKRAETIRFSQHAVVASHNGKPCLMIRVANMRKSLLIGCQVTGKLLQTHQTKEGENIRLNQVNVTFQVDTASDSPFLILPLTFYHVVDETSPLKDLPLRSGEGDFELVLILSGTVESTSATCQVRTSYLPEEILWGYEFTPAISLSASGKYIADFSLFDQVVKVASPSGLRDSTVRYGDPEKLKLEESLREQAEKEGSALSVRISNV | 4 |
| full-length Kir4.1, N-terminal tags cleaved off (natural protein, UniProt P78508 1-379, looked up, Kir4.1 (KCNJ10) inwardly rectifying potassium channel, full length; Purified as a tetramer that carries copurified endogenous LC8; also called KCNJ10; Kir4.1 WT; source: purified (FLAG resin, eluted by HRV 3C cleavage, Superose 6 SEC); not shown: FLAG, N-terminal, cleaved; GFP, N-terminal, cleaved) MTSVAKVYYSQTTQTESRPLMGPGIRRRRVLTKDGRSNVRMEHIADKRFLYLKDLWTTFIDMQWRYKLLLFSATFAGTWFLFGVVWYLVAVAHGDLLELDPPANHTPCVVQVHTLTGAFLFSLESQTTIGYGFRYISEECPLAIVLLIAQLVLTTILEIFITGTFLAKIARPKKRAETIRFSQHAVVASHNGKPCLMIRVANMRKSLLIGCQVTGKLLQTHQTKEGENIRLNQVNVTFQVDTASDSPFLILPLTFYHVVDETSPLKDLPLRSGEGDFELVLILSGTVESTSATCQVRTSYLPEEILWGYEFTPAISLSASGKYIADFSLFDQVVKVASPSGLRDSTVRYGDPEKLKLEESLREQAEKEGSALSVRISNV | 4 |
| full-length Kir4.1 protein with the ΔTQT deletion (natural protein, UniProt P78508 1-379, looked up, Kir4.1 (KCNJ10), full length, with the three TQT residues (13-15) deleted; also called Kir4.1-ΔTQT; not shown: GFP, N-terminal, kept) MTSVAKVYYSQTESRPLMGPGIRRRRVLTKDGRSNVRMEHIADKRFLYLKDLWTTFIDMQWRYKLLLFSATFAGTWFLFGVVWYLVAVAHGDLLELDPPANHTPCVVQVHTLTGAFLFSLESQTTIGYGFRYISEECPLAIVLLIAQLVLTTILEIFITGTFLAKIARPKKRAETIRFSQHAVVASHNGKPCLMIRVANMRKSLLIGCQVTGKLLQTHQTKEGENIRLNQVNVTFQVDTASDSPFLILPLTFYHVVDETSPLKDLPLRSGEGDFELVLILSGTVESTSATCQVRTSYLPEEILWGYEFTPAISLSASGKYIADFSLFDQVVKVASPSGLRDSTVRYGDPEKLKLEESLREQAEKEGSALSVRISNV | 4 |
